Assay [1] deals with T1, EpCAM-Fc (Sino hEpCAM_Fc #10694-H02H) (human, UniProt P16422 24-265).
T1 construct: Bought protein, called dimeric; also called dimeric antigen EpCAM-Fc; not shown: Fc part
T1 sequence (looked up): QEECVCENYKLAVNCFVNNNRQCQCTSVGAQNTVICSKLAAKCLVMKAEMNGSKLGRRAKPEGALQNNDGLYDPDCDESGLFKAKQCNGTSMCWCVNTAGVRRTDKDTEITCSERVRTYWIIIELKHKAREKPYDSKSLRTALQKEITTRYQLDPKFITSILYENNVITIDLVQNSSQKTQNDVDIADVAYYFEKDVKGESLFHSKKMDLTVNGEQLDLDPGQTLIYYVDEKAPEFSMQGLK
Nature of the assay: Octet BLI, Assay 3: EpCAM-Fc coupled to AR2G sensor, bsAb in solution, 1:1 fit. The method, then: (§1) Kinetic measurements were performed using the Octet RED96 platform (ForteBlo).
Antigen was coupled to Amine reactive Second generation sensors (Dip and Read Amine reactive Second-Generation (AR2G) Biosensors (Part no #18-5092 (tray)) at antigen concentrations of 0.4, 1.5, 0.25 or 0.5 μg/mL. BsAb (serially diluted ½ in 1× Kinetic buffer (ForteBio) with start concentrations of 20, 15, 10 or 25 nM) were analysed for binding to antigen-coupled sensors. The association was followed for 300 seconds and the dissociation in 1× Kinetic buffer for 300 seconds. Sensor tips were regenerated using 10 mM glycine, pH 2.2. Data generated were referenced by subtracting a parallel buffer blank, the baseline was aligned with the y-axis, inter-step correlation by alignment against dissociation was performed and the data were smoothed by a Savitzky-Golay filter in the data analysis software (v.9.0.0.14). The processed data were fitted using a 1:1 Langmuir binding model with X2 as a measurement of fitting accuracy.
On the technique in general: BLI is a label-free optical method that tracks binding on a fibre tip over time.

The target in assay [2] is T2, hEpCAM (R&D Systems #9277-EP) (human, UniProt P16422 24-265).
T2 construct: Bought protein, monomeric; also called human EpCAM; monomeric antigen EpCAM-his; not shown: His tag
T2 sequence (looked up): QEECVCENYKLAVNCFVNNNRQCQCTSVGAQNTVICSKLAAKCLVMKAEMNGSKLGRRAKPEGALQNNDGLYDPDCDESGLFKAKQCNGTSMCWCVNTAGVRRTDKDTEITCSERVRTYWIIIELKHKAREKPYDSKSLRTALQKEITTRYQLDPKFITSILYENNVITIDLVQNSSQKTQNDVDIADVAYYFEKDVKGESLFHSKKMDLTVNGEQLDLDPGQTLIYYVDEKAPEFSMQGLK
Nature of the assay: Octet BLI, Assay 2: bsAb on FAB2G sensor, monomeric EpCAM-his in solution, 1:1 fit. The method, then: as §1
(§2) BsAb at 1.0 or 1.5 ug/ml where coupled to anti-human Fab-CH1 2nd generation (FAB2G) biosensors (Part no #18-5125 (tray)). Antigens were serially diluted % in 1× Kinetic buffer (ForteBio) to 100 nM, 50 nM, 25 nM, 12.5 nM, 6.25 nM, 3.125 nM, 1.56 nM or 0 nM. The association was followed for 300 seconds and the dissociation in 1× Kinetic buffer for 300 seconds. Sensor tips were regenerated using 10 mM glycine, pH 1.5. Data generated were referenced by subtracting a parallel buffer blank, the baseline was aligned with the y-axis, inter-step correlation by alignment against dissociation was performed and the data were smoothed by a Savitzky-Golay filter in the data analysis software (v.9.0.0.14). The processed data were fitted using a 1:1 Langmuir binding model with X2 as a measurement of fitting accuracy.

The target of assay [3] is T1, EpCAM-Fc (Sino hEpCAM_Fc #10694-H02H). The assay is described as follows: Octet BLI, Assay 1: bsAb on FAB2G sensor, dimeric EpCAM-Fc in solution, 1:1 fit. The protocol:
as §1, §2

Assay [4] deals with T3, human EpCAM expressed on cells (human, UniProt P16422 24-314).
T3 construct: whole, on cells; also called EpCAM-transfected CHO cells; CHO-EpCAM
T3 sequence (looked up): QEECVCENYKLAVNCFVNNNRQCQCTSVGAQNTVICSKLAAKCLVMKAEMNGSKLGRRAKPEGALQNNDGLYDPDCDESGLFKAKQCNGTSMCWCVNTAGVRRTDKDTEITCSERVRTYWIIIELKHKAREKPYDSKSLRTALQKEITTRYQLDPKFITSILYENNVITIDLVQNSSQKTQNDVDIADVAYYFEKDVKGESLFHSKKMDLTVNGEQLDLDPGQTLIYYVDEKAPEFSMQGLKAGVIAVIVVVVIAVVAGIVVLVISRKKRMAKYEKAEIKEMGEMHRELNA
Nature of the assay: flow cytometry, biotinylated antibody titrated on EpCAM-transfected and control CHO cells, streptavidin detection. The text has this: The human EpCAM gene was cloned into pcDNA3.1, and the vector was subsequently stably transfected into CHO cells. Control CHO cells were stably transfected with and empty pcDNA3.1 vector. […] Binding of biotinylated antibodies was detected with fluorochrome-conjugated streptavidin and analysed using flow cytometry.

Assay [5] addresses T4, CD40 on human peripheral blood mononuclear cells (human, UniProt P25942 21-277).
T4 construct: whole, on cells; also called CD40+ cell populations among PBMC (B cells, monocytes)
The assay is described as follows: flow cytometry, biotinylated antibody titrated on human PBMC (B cells, monocytes, T cells, NK cells gated), streptavidin detection. The text has this: Binding of biotinylated antibodies was detected with fluorochrome-conjugated streptavidin and analysed using flow cytometry.
In general terms: A flow cytometer gives signals particle by particle.

Assay [6] concerns the target T5, biotinylated hCD40 (504-030 from Ancell) (human, UniProt P25942 21-193, biotinylated).
T5 construct: Detection reagent of the dual ELISA
Nature of the assay: dual ELISA, bsAb captured on plate-coated hEpCAM, detected with biotinylated hCD40 and streptavidin-HRP. The protocol:
Plates were coated with 0.5 μg/mL hEpCAM (R&D Systems #9277-EP) in PBS over night at 4° C. After washing in PBS/0.05% Tween 20 (PBST), the plates were blocked with PBS/0.2% BSA for at least 30 minutes at room temperature before being washed again. Samples serially diluted from 50 nM in PBS/0.02% BSA were then added and allowed to bind for at least 1 hour at room temperature. […] Dual antigen-complexed bsAb were detected with HRP-labelled streptavidin. SuperSignal Pico Luminescent was used as substrate and luminescence signals were measured using Fluostar Optima.

T5 sequence (P25942 21-193 limits assumed): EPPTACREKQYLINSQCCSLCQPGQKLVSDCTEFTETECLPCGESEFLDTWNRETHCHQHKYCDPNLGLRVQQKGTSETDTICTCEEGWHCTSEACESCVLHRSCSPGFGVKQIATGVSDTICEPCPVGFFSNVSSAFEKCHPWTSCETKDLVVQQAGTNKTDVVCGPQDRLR
T4 sequence (P25942 21-277): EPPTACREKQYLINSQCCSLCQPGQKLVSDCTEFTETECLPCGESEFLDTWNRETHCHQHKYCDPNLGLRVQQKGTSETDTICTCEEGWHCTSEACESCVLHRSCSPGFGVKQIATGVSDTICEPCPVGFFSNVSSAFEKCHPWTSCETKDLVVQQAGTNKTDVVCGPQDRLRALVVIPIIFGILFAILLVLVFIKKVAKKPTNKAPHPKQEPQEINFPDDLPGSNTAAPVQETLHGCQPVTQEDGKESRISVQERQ

B1: 1132-3174.R (bispecific antibody)
chain 1: not shown
chain 2: ELVMTQSPSSLTVTAGEKVTMSCKSSQSLLNSGNQKNYLTWYQRKPGQPPKLLIYWASTRESGVPDRFTGSGSGTDFTLTISSVQAEDLAVYYCQNDYSYPLTFGAGTKLEIK
chain 3: DIQMTQSPSSLSASVGDRVTITCRASQSISSYLNWYQEKPGKAPKLLIYAASSLQSGVPSRFSGSGSGTDFTLTISSLQPEDFATYYCQQYGRNPPTFGQGTKLEIKRTVAAPSVFIFPPSDEQLKSGTASVVCYLNNFYPREAKVQWKVDNALQSGNSQESVTEQDSKDSTYSLWSTLTLSKADYEKHKVYACEVTHQGLSSPVTKSFNRGEC
chain 4: EVQLLEQSGAELVRPGTSVKISCKASGYAFTNYWLGWVKERPGHGLEWIGDIFPGSGNIHYNEKFKGKATLTADKSSSTAYMQLSSLTFEDSAVYFCARLRNWDEPMDYWGQGTTVTVSSASTKGPSVFPLAPSSKSTSGGTAALGCLVKDYFPEPVTVSWNSGALTSGVHTFPAVLQSSGLYSLSSVVEVPSSSLGTQTYICNVNHKPSNTKVDKKVEPKSC
Regarding B1, in assay [1], binding was characterised by a dissociation constant (Kd) of 8 nM; the koff (commonly the rate constant with which the complex falls apart) amounted to 0.001 s⁻¹; the kon – broadly, the rate constant with which the complex forms – turned out to be 100000 M⁻¹ s⁻¹.

B2: 1132-005025.M (bispecific antibody)
VH: EVQLLESGGGLVQPGGSLRLSCAASGFTFSSYAMSWVRQAPGKGLEWVSGIGSYGGGTYYADSVKGRFTISRDNSKNTLYLQMNSLRAEDTAVYYCARYVNFGMDYWGQGTLVTVSS
VL: DIQMTQSPSSLSASVGDRVTITCRASQSISSYLNWYQQKPGKAPKLLIYAASSLQSGVPSRFSGSGSGTDFTLTISSLQPEDFATYYCQQYGRNPPTFGQGTKLEIK
scFv: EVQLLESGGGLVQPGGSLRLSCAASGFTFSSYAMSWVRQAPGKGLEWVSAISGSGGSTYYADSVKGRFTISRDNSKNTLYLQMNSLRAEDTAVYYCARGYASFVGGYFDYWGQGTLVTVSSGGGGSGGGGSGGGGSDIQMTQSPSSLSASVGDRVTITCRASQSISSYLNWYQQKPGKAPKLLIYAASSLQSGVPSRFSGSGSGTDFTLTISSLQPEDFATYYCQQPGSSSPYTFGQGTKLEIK
notes: also called CD40-EpCAM bispecific antibody in the Morrison format
With B2, in assay [2], binding was put at a Kd of 300 nM, the koff was 0.01 s⁻¹ and the kon stood at 30000 M⁻¹ s⁻¹. Besides, in assay [3], the Kd (commonly a measure of binding affinity in units of concentration) was 4 nM, the koff came to 0.001 s⁻¹ and the kon was 300000 M⁻¹ s⁻¹.

B3: 1132.m2 (antibody, V domains shown)
VH: EVQLLESGGGLVQPGGSLRLSCAASGFTFSSYAMSWVRQAPGKGLEWVSGIGSYGGGTYYADSVKGRFTISRDNSKNTLYLQMNSLRAEDTAVYYCARYVNFGMDYWGQGTLVTVSS
VL: DIQMTQSPSSLSASVGDRVTITCRASQSISSYLNWYQQKPGKAPKLLIYAASSLQSGVPSRFSGSGSGTDFTLTISSLQPEDFATYYCQQYGRNPPTFGQGTKLEIK
notes: also called LALA-mutated agonistic monoclonal CD40 antibody
Regarding B3, the binding result in assay [4] is on record as “no binding”; in assay [5] it was “binds”.

B4: 1132-3174.M (bispecific antibody, V domains shown)
VH 1: EVQLLESGGGLVQPGGSLRLSCAASGFTFSSYAMSWVRQAPGKGLEWVSGIGSYGGGTYYADSVKGRFTISRDNSKNTLYLQMNSLRAEDTAVYYCARYVNFGMDYWGQGTLVTVSS
VL 1: DIQMTQSPSSLSASVGDRVTITCRASQSISSYLNWYQQKPGKAPKLLIYAASSLQSGVPSRFSGSGSGTDFTLTISSLQPEDFATYYCQQYGRNPPTFGQGTKLEIK
VH 2: EVQLLEQSGAELVRPGTSVKISCKASGYAFTNYWLGWVKQRPGHGLEWIGDIFPGSGNIHYNEKFKGKATLTADKSSSTAYMQLSSLTFEDSAVYFCARLRNWDEPMDYWGQGTTVTVSS
VL 2: ELVMTQSPSSLTVTAGEKVTMSCKSSQSLLNSGNQKNYLTWYQQKPGQPPKLLIYWASTRESGVPDRFTGSGSGTDFTLTISSVQAEDLAVYYCQNDYSYPLTFGAGTKLEIK
notes: as for B2
In assay [2], B4 displayed a Kd of 500 nM, a koff of 0.01 s⁻¹ and a kon of 20000 M⁻¹ s⁻¹. Besides, in assay [3], the Kd amounted to 0.5 nM, the koff was 8e-05 s⁻¹ and the kon came out at 200000 M⁻¹ s⁻¹. Moreover, the binding result in assay [6] is reported as “binds”.

B5: 1132-005038.M (bispecific antibody)
VH: EVQLLESGGGLVQPGGSLRLSCAASGFTFSSYAMSWVRQAPGKGLEWVSGIGSYGGGTYYADSVKGRFTISRDNSKNTLYLQMNSLRAEDTAVYYCARYVNFGMDYWGQGTLVTVSS
VL: DIQMTQSPSSLSASVGDRVTITCRASQSISSYLNWYQQKPGKAPKLLIYAASSLQSGVPSRFSGSGSGTDFTLTISSLQPEDFATYYCQQYGRNPPTFGQGTKLEIK
scFv: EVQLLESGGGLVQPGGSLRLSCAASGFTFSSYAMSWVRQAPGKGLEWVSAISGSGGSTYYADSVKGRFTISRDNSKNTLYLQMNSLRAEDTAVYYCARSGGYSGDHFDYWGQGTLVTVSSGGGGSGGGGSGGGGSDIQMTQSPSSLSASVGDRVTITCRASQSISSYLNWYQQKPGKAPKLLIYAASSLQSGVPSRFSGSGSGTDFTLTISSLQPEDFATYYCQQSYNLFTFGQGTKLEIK
notes: as for B2
In assay [2], B5 had a Kd of 1000 nM, a koff of 0.01 s⁻¹ and a kon of 8000 M⁻¹ s⁻¹. In assay [3], this molecule came in with a Kd of 6 nM, a koff of 0.002 s⁻¹ and a kon of 300000 M⁻¹ s⁻¹.

B6: 1132-3188.M (bispecific antibody, V domains shown)
VH 1: EVQLLESGGGLVQPGGSLRLSCAASGFTFSSYAMSWVRQAPGKGLEWVSGIGSYGGGTYYADSVKGRFTISRDNSKNTLYLQMNSLRAEDTAVYYCARYVNFGMDYWGQGTLVTVSS
VL 1: DIQMTQSPSSLSASVGDRVTITCRASQSISSYLNWYQQKPGKAPKLLIYAASSLQSGVPSRFSGSGSGTDFTLTISSLQPEDFATYYCQQYGRNPPTFGQGTKLEIK
VH 2: EVQLVQSGPGLVQPGGSVRISCAASGYTFTNYGMNWVKQAPGKGLEWMGWINTYTGESTYADSFKGRFTFSLDTSASAAYLQINSLRAEDTAVYYCARFAIKGDYWGQGTLLTVSS
VL 2: DIQMTQSPSSLSASVGDRVTITCRSTKSLLHSNGITYLYWYQQKPGKAPKLLIYQMSNLASGVPSRFSSSGSGTDFTLTISSLQPEDFATYYCAQNLEIPRTFGQGTKVELK
notes: also called CD40-EpCAM bispecific antibody in the Morrison format; 3188 = 4D5MOCB = BM1
For the molecule B6, in assay [2], the affinity, expressed as Kd, was 30 nM; the koff was determined as 0.004 s⁻¹; the kon turned out to be 100000 M⁻¹ s⁻¹. In addition, in assay [3], the Kd was under 0.001 nM, the koff was under 1e-07 s⁻¹ and the kon stood at 300000 M⁻¹ s⁻¹.

(Values after patent US20220073635A1 (ALLIGATOR BIOSCIENCE, published 2022).)
